Data taken from patent publication US20250281630A1 (TORAY INDUSTRIES, published 2025).

T1: mouse CAPRIN-1 on mouse cancer cells (mouse, UniProt Q60865 2-707)
T1 construct: whole, on cells
T1 sequence (looked up): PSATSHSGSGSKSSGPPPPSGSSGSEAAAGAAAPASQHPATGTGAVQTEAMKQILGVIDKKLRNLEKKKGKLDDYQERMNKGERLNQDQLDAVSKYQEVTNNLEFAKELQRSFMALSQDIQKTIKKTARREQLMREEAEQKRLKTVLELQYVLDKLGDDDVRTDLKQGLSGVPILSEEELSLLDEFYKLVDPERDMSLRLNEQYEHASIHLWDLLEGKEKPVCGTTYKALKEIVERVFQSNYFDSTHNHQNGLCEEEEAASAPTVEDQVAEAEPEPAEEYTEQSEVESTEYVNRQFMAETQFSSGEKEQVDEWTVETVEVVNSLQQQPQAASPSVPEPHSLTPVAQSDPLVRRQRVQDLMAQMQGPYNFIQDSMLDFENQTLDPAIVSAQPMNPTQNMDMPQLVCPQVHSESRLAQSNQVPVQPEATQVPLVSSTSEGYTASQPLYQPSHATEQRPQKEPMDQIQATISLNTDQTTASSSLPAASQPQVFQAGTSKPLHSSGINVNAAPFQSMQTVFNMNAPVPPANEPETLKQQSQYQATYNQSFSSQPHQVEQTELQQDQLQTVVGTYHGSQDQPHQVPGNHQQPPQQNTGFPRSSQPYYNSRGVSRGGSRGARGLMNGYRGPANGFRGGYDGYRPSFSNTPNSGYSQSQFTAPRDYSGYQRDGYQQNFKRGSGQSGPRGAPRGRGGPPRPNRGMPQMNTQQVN

T2: human CAPRIN-1 on the cell membrane surface of human cancer cells (human, UniProt Q14444 2-709)
T2 construct: whole, on cells
T2 sequence (looked up): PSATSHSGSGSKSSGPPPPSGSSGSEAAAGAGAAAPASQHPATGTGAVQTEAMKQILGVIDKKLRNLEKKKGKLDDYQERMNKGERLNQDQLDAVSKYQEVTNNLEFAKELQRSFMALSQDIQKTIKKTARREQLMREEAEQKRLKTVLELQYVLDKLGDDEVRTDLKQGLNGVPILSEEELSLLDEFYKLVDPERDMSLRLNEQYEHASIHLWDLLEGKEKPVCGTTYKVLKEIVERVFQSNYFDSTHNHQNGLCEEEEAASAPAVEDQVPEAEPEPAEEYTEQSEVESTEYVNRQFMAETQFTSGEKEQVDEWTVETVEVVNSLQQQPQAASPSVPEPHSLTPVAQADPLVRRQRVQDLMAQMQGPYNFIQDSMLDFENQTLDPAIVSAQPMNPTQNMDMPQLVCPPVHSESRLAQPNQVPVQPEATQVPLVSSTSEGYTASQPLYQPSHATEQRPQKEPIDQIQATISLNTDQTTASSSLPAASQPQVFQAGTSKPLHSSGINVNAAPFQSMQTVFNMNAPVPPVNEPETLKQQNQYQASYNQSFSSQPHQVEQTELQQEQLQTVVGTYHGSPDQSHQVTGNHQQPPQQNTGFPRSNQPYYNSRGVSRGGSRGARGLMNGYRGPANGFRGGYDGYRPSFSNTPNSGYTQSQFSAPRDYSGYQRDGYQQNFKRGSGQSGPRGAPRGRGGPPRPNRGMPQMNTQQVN


What was measured:
[1] = biological target: T1, mouse CAPRIN-1 on mouse cancer cells; assay: flow cytometry, Renca and 4T1 cells
[2] = biological target: T2, human CAPRIN-1 on the cell membrane …; assay: flow cytometry, BT474 cells
Procedure: The tube was left at 4° C. for 1 hour. After washing with PBS, Alexa 488-labeled anti-rabbit IgG (H+L) diluted 100-fold with PBS(-) containing 0.5% FBS (0.5% FBS-PBS(-)) was added thereto, and the tube was left at 4° C. for 1 hour. After washing with 0.5% FBS-PBS(-), the cells were reacted with BD Horizon Fixable Viability Stain (FVS) Reagents (FVS450, Becton, Dickinson and Company) to stain dead cells, and the fluorescence intensity was then measured using FACSFortessa™ (Becton, Dickinson and Company).

Row | binding result [1] | binding result [2] | Binder
1 | binds | binds | Conjugate 122 (antibody, V domains shown, human IgG1 constant regions; also called conjugate with MMAE using humanized antibody #36) VH: EVQLVESGGGLVQPGGSLRLSCAASGFSLSSHSLGWVRQAPGKGLEWIGDIRSGGSAYYANWAKGRFTISRDNSKNTLYLQMNSLRAEDTAVYYCTRTNGPSDLTNRLDLWGQGTLVTVSS VL: QVLTQSPSSLSASVGDRVTINCQASQSLYNNENLAWFQQKPGKVPKRLIYGASTLASGVSSRFSGSGSGTEFTLTISSLQCEDFAIYYCLGEFSCGSADCFAFGGGTKVEIK
2 | binds | binds | Conjugate 124 (antibody, V domains shown, human IgG1 constant regions; also called conjugate with MMAE using humanized antibody #38) VH: EVQLVESGGGLVQPGGSLRLSCAASGFSLSSHSLGWVRQAPGKGLEWIGDIRSGGSAYYANWAKGRFTISRDNSKNTLYLQMNSLRAEDTAVYYCTRTNGPSDLTNRLDLWGQGTLVTVSS VL: EQVLTQSPSSLSASVGDRVTINCQASQSLYNNENLAWFQQKPGKVPKRLIYGASTLASGVSSRFSGSGSGTEFTLTISNLQPEDFAIYYCLGEFSCGSADCFAFGGGTKVEIK
3 | binds | binds | Conjugate 100 (antibody, V domains shown, human IgG1 constant regions; also called conjugate with MMAE using humanized antibody #14) VH: DAELVKPGASVKISCKASGYTFTDHSIHWVQQKPEQGLEWIGYISPGNGNIKYNEKFKGKATLTADKSSSTAYMQLNSLTSEDSAVYFCKRSLGRGGPYYFDYWGQGTTVTVSS VL: DIVLTQAAPSLPVTPGESVSISCRSSKSLLHSNGNTYLYWFLQRPGQSPQLLIYRMSNLASGVPDRFSGSGSGTAFTLRISRVEAEDVGVYYCMQHREYPVTFGSGPN
4 | binds | binds | Conjugate 95 (antibody, V domains shown, human IgG1 constant regions; also called conjugate with MMAE using humanized antibody #9) VH: AVTLDESGGGLQTPGGALSLVCKASGFTFSGYDMLWVRQAPGKGLEWVAGIGSTGGGTDYGAAVKGRATISRDNGQSTVRLQLNNLRAEDTATYYCAKVAGGCNSGYCRDSPGSIDAWGHGTEVIVS VL: AVTQQPASVSANPGETVKITCSGGGSRNYYGWYQQKSPGSVPVTVIYYDDQRPSNIPSRFSGALSGSTSTLTITGVQADDEAVYFCGSADSNTYEGSFGAGTTLTVL
5 | binds | binds | Conjugate 99 (antibody, V domains shown, human IgG1 constant regions; also called conjugate with MMAE using humanized antibody #13) VH: GAELVRSGASVKMSCKASGYSFTDYNMYWVKQTPGQGLEWIGYIYPGNGGTNYNQKFKGKATLTADTSSSTAYMQISSLTSEDSAVYFCARDYDDGGYAMDYWGQGTTVTVSS VL: DIQMTQSPASLSASVGETVTITCRASGNIHNYLTWYQQKQGKSPQLLVYNAKTLADGVPSRFSGSGSGTQYSLKINRLQPEDFGSYYCQHFWNIPWTFGGGTKLNSR
